According to paper PMC9482650, “Quantitative fragmentomics allow affinity mapping of interactomes” (Nature Communications, 2022):

T1: RHPN1, Q8TCX5
T1 sequence (Q8TCX5 508-602, limits assumed, looked up): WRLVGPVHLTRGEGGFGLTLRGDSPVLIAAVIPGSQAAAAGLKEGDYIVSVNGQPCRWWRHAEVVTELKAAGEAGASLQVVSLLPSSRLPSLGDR

T2: NHERF3_3, Q5T2W1
T2 sequence (Q5T2W1 238-333, limits assumed, looked up): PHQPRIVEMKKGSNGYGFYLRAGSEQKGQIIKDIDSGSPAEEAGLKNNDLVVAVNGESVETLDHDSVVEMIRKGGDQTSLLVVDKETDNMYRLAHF

T3: APBA1_1, Q02410
T3 sequence (Q02410 651-752, limits assumed, looked up): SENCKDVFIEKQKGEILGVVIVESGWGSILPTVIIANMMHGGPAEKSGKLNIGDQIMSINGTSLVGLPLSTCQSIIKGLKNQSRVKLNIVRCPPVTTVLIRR

T4: DLG3_3, Q92796
T4 sequence (Q92796 374-475, limits assumed, looked up): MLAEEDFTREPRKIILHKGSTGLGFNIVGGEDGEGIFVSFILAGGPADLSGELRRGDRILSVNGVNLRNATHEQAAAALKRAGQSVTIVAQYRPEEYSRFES

T5: HTRA3, P83110
T5 sequence (P83110 354-453, limits assumed, looked up): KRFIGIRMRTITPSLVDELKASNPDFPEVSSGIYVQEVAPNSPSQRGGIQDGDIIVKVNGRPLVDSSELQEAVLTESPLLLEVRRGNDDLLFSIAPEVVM

T6: ARHGAP21, Q5T5U3
T6 sequence (Q5T5U3 45-169, limits assumed, looked up): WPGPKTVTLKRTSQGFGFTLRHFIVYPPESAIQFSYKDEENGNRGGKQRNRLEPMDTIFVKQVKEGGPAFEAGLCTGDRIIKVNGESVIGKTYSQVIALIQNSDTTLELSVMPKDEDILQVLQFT

T7: DLG3_1, Q92796
T7 sequence (Q92796 125-227, limits assumed, looked up): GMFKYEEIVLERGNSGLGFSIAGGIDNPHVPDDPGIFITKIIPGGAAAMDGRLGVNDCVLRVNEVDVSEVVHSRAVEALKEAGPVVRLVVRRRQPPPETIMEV

T8: MPP6, Q9NZW5
T8 sequence (Q9NZW5 125-219, limits assumed, looked up): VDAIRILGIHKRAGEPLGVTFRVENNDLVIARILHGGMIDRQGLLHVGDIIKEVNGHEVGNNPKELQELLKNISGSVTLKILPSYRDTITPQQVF

T9: PCLO, Q9Y6V0
T9 sequence (Q9Y6V0 4491-4600, limits assumed, looked up): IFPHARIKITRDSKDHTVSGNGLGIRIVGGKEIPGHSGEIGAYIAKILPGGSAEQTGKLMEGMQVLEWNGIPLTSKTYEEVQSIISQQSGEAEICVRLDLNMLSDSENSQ

T10: HTRA4, P83105
T10 sequence (P83105 378-476, limits assumed, looked up): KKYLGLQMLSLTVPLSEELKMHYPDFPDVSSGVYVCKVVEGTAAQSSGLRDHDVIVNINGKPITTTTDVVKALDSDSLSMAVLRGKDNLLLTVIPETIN

T11: TJP3_3, O95049
T11 sequence (O95049 375-456, limits assumed, looked up): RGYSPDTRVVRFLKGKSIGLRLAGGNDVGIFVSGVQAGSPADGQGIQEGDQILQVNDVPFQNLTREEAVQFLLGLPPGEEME

T12: MPDZ_5, O75970
T12 sequence (O75970 695-796, limits assumed, looked up): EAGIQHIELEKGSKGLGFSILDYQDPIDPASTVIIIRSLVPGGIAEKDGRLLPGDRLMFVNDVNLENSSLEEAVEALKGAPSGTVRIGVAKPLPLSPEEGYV

T13: DFNB31_1, Q9P202
T13 sequence (Q9P202 135-233, limits assumed, looked up): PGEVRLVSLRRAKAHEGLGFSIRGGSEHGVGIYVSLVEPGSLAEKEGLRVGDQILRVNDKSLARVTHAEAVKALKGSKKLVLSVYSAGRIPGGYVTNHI


Experiments:
Test in all cases: holdup assay
Parameters in all cases: key: below the threshold = too weak to quantify, mostly under pKd 3.1 to 4
Conditions in all cases: plain residues with an end cap or a label only (N-terminal biotin on a linker: ado-ado)
ARHGEF12, Q9NZN5-2 = target: ARHGEF12, Q9NZN5-2
ARHGEF12, Q9NZN5-2, sequence (Q9NZN5 other isoform, or with tags, fused parts or gaps): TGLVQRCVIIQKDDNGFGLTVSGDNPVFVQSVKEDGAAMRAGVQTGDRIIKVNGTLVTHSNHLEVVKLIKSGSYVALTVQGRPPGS

RHPN1, Q8TCX5 = target: T1, RHPN1, Q8TCX5
NHERF3_3, Q5T2W1 = target: T2, NHERF3_3, Q5T2W1
LIMK2, P53671 = target: LIMK2, P53671
LIMK2, P53671, sequence (P53671 143-248): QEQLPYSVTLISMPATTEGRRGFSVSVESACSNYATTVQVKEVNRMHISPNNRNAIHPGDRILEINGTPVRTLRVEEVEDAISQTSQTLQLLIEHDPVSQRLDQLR

DLG1_1, Q12959 = target: DLG1_1, Q12959
APBA1_1, Q02410 = target: T3, APBA1_1, Q02410
DLG3_3, Q92796 = target: T4, DLG3_3, Q92796
PTPN3, P26045 = target: PTPN3, P26045
PTPN3, P26045, sequence (P26045 505-587): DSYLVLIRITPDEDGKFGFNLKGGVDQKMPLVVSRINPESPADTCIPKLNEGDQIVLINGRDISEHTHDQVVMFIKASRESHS

GORASP2, Q9H8Y8 = target: GORASP2, Q9H8Y8
HTRA3, P83110 = target: T5, HTRA3, P83110
ARHGAP21, Q5T5U3 = target: T6, ARHGAP21, Q5T5U3
DLG3_1, Q92796 = target: T7, DLG3_1, Q92796
MPP6, Q9NZW5 = target: T8, MPP6, Q9NZW5
PDZRN4_1, Q6ZMN7 = target: PDZRN4_1, Q6ZMN7
PDZRN4_1, Q6ZMN7, sequence (Q6ZMN7 213-318): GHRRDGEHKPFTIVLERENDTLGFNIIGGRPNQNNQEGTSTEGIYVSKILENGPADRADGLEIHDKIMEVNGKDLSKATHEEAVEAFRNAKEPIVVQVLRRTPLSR

PCLO, Q9Y6V0 = target: T9, PCLO, Q9Y6V0
MAGI1_1, Q96QZ7 = target: MAGI1_1, Q96QZ7
MAGI1_1, Q96QZ7, sequence (Q96QZ7 1-106): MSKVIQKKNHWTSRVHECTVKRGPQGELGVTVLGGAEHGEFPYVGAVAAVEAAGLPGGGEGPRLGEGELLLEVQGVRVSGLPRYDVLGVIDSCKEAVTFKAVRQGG

HTRA4, P83105 = target: T10, HTRA4, P83105
TJP3_3, O95049 = target: T11, TJP3_3, O95049
LNX1_1, Q8TBB1 = target: LNX1_1, Q8TBB1
LNX1_1, Q8TBB1, sequence (Q8TBB1 261-371): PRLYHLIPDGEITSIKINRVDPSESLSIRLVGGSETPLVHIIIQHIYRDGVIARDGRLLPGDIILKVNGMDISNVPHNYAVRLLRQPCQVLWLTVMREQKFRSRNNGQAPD

LNX1_3, Q8TBB1 = target: LNX1_3, Q8TBB1
LNX1_3, Q8TBB1, sequence (Q8TBB1 500-596): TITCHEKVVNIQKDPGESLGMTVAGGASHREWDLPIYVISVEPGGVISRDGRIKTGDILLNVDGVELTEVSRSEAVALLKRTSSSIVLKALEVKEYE

MPDZ_5, O75970 = target: T12, MPDZ_5, O75970
GORASP1, Q9BQQ3 = target: GORASP1, Q9BQQ3
GORASP1, Q9BQQ3, sequence (Q9BQQ3 1-208): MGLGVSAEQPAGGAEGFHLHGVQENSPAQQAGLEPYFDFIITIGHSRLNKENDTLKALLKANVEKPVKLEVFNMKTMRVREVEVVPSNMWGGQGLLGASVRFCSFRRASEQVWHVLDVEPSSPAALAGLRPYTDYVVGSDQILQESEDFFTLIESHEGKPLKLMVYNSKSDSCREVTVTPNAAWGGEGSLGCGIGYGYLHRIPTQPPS

MAGI2_6, Q86UL8 = target: MAGI2_6, Q86UL8
MAGI2_6, Q86UL8, sequence (Q86UL8 1141-1229): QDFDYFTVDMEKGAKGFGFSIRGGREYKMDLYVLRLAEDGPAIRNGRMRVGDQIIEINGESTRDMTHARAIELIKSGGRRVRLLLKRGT

DFNB31_1, Q9P202 = target: T13, DFNB31_1, Q9P202

Binder | pKd (ARHGEF12, Q9NZN5-2) | pKd (RHPN1, Q8TCX5) | pKd (NHERF3_3, Q5T2W1) | pKd (LIMK2, P53671) | pKd (DLG1_1, Q12959) | pKd (APBA1_1, Q02410) | pKd (DLG3_3, Q92796) | pKd (PTPN3, P26045) | pKd (GORASP2, Q9H8Y8) | pKd (HTRA3, P83110) | pKd (ARHGAP21, Q5T5U3) | pKd (DLG3_1, Q92796) | pKd (MPP6, Q9NZW5) | pKd (PDZRN4_1, Q6ZMN7) | pKd (PCLO, Q9Y6V0) | pKd (MAGI1_1, Q96QZ7) | pKd (HTRA4, P83105) | pKd (TJP3_3, O95049) | pKd (LNX1_1, Q8TBB1) | pKd (LNX1_3, Q8TBB1) | also measured
TGLWKHETTV [ADGRA3, Q8IWK6] | 4.06 | 4.44 | below the threshold | below the threshold | 5.12 | below the threshold | 4.77 | 4.5 | 3.98 | below the threshold | 3.92 | 4.69 | below the threshold | 4.56 | below the threshold | below the threshold | 4.15 | below the threshold | 3.78 | below the threshold | pKd (MPDZ_5, O75970): below the threshold; pKd (GORASP1, Q9BQQ3): below the threshold; pKd (MAGI2_6, Q86UL8): 3.86; pKd (DFNB31_1, Q9P202): 3.9
KPGKGSETVV [FZD4, Q9ULV1] | below the threshold | 3.89 | below the threshold | below the threshold | 4.65 | below the threshold | 4.02 | 4.13 | 4.24 | below the threshold | 3.93 | 4.28 | below the threshold | 3.51 | below the threshold | below the threshold | below the threshold | below the threshold | below the threshold | below the threshold | pKd (MPDZ_5, O75970): below the threshold; pKd (GORASP1, Q9BQQ3): 3.78; pKd (MAGI2_6, Q86UL8): below the threshold; pKd (DFNB31_1, Q9P202): 3.91
PYPTADHMLA [JUP, P14923] | below the threshold | below the threshold | below the threshold | below the threshold | below the threshold | below the threshold | below the threshold | 3.97 | below the threshold | below the threshold | below the threshold | below the threshold | below the threshold | below the threshold | below the threshold | below the threshold | below the threshold | below the threshold | below the threshold | below the threshold | pKd (MPDZ_5, O75970): below the threshold; pKd (GORASP1, Q9BQQ3): below the threshold; pKd (MAGI2_6, Q86UL8): below the threshold; pKd (DFNB31_1, Q9P202): below the threshold

Further lines, with some results ahead:

pKd (ARHGEF12, Q9NZN5-2) | pKd (RHPN1, Q8TCX5) | pKd (NHERF3_3, Q5T2W1) | pKd (LIMK2, P53671) | pKd (DLG1_1, Q12959) | pKd (APBA1_1, Q02410) | pKd (DLG3_3, Q92796) | pKd (PTPN3, P26045) | pKd (GORASP2, Q9H8Y8) | pKd (HTRA3, P83110) | pKd (ARHGAP21, Q5T5U3) | pKd (DLG3_1, Q92796) | pKd (MPP6, Q9NZW5) | pKd (PDZRN4_1, Q6ZMN7) | pKd (PCLO, Q9Y6V0) | pKd (MAGI1_1, Q96QZ7) | pKd (HTRA4, P83105) | pKd (TJP3_3, O95049) | pKd (LNX1_1, Q8TBB1) | pKd (LNX1_3, Q8TBB1) | Binder | also measured
below the threshold | below the threshold | below the threshold | below the threshold | below the threshold | below the threshold | below the threshold | 3.98 | below the threshold | below the threshold | below the threshold | below the threshold | below the threshold | below the threshold | below the threshold | below the threshold | below the threshold | below the threshold | below the threshold | below the threshold | EKCGKEFSEF [PRKACA, P17612] | pKd (MPDZ_5, O75970): below the threshold; pKd (GORASP1, Q9BQQ3): below the threshold; pKd (MAGI2_6, Q86UL8): below the threshold; pKd (DFNB31_1, Q9P202): below the threshold
below the threshold | below the threshold | below the threshold | below the threshold | below the threshold | below the threshold | below the threshold | 4.2 | 3.93 | 4.31 | below the threshold | below the threshold | below the threshold | below the threshold | below the threshold | below the threshold | below the threshold | below the threshold | below the threshold | below the threshold | QKAPTKEFYA [SDC2, P34741] | pKd (MPDZ_5, O75970): 3.48; pKd (GORASP1, Q9BQQ3): 3.51; pKd (MAGI2_6, Q86UL8): below the threshold; pKd (DFNB31_1, Q9P202): below the threshold
5.5 | 4.17 | below the threshold | below the threshold | 3.7 | below the threshold | below the threshold | 4.68 | 3.9 | below the threshold | 4.07 | below the threshold | below the threshold | below the threshold | below the threshold | below the threshold | below the threshold | below the threshold | 4.19 | below the threshold | AAVENKVTDL [PLXNB1, O43157] | pKd (MPDZ_5, O75970): below the threshold; pKd (GORASP1, Q9BQQ3): below the threshold; pKd (MAGI2_6, Q86UL8): 4.99; pKd (DFNB31_1, Q9P202): 3.47
